# Data taken from the nanobody polyreactivity screen of Harvey et al. (2022).
# Test: yeast display, Sf9 membrane polyspecificity reagent, FACS + sequencing; frameworks hold sequencing errors
# Outline: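 Galactose-induced (36–48 hours) yeast carrying a synthetic nanobody display library were exposed to 10% biotinylated, detergent-solubilized Sf9 membrane reagent at 4 °C for 1 hour. FACS followed streptavidin microbead enrichment, using low and high (top ~1%) gates for expression (anti-HA) and reagent binding (streptavidin). Colony PCR, MiSeq 2 × 250 sequencing and CDR-length filtering followed. Labels for polyreactivity reflect the gate of origin.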
row,Sequence,polyreactivity (PSR sort gate)
1,QVQLVESGGGLVQAGGSLRLSCAASGSIFKVYAMGWYRQAPGKERELVASITSGGRTYADSVKGRFTISRDNAKNTVYLQMNSLKPEDTAVYYCSARSRSKFYYWGQGTQLTVSS,high polyreactivity
2,QVQLVESGGGLVQAGGSLRLSCAASGSIFKWNAMGWYRQAPGKERELVASITRSGGSTYYADSVKGRFTISRDNAKNTVYLQMNSLKPEDTAVYYCARSYGWYRWAGYDYWGQGTQVTVSS,high polyreactivity
3,QVQLVESGGGLVQAGGSLRLSCAASGSIFKWYAMGWYRQAPGKERELVAAITRGGSTNYADSVKGRFTISRDNAKNTVYLQMNSLKPEDTAVYYCNAVYTYRSGFGYWGQGTQVTVSS,low polyreactivity
4,QVQLVESGGGLVQAGGSLRLSCAASGSIFKYNPMGWYRQAPGKEMELVATISGGGRTYYADSVKGRFTISRDNAKNTVYLQMNSLKPEDTAVYYCAARKRGTFTYDYWGQGTQVTVSS,high polyreactivity
5,QVQLVESGGGLVQAGGSLRLSCAASGSIFKYYAMGWYRQAPGKERELDAAISYSGGRTYYADSVKGRFTISRDNAKNTVYLQMNSLKPEDTAVYYCATDYYYRSAKFLGDYWGQGTQVTVSS,high polyreactivity
6,QVQLVESGGGLVQAGGSLRLSCAASGSIFKYYAMGWYRQAPGKERELVAAISVRGSRTYYADSVKGRFTISRDNAKNTVYLQMNSLKPEDTAVYYCAADGGYIPPYGYDYWGQGTQVTVSS,high polyreactivity
7,QVQLVESGGGLVQAGGSLRLSCAASGSIFKYYAMGWYRQAPGTERELVAAISTGGTTNYADSVKGRFTISRDNAKNTVYLQMNSLKPEDTAVYYCNRDYLVRSRYKYYYWGQGTQVTVSS,low polyreactivity
8,QVQLVESGGGLVQAGGSLRLSCAASGSIFKYYTMGWYRQAPGKERELVARISTRGDSTYYADSVKGRFTISRDNAKNTVYLQMNSLKPEDTAVYYCNARPGSRRSSTWGMDYWGQGTQVTVSS,high polyreactivity
9,QVQLVESGGGLVQAGGSLRLSCAASGSIFLASAMGWYRQAPGKERELVAAITAGTGSTYYADSVKGRFTISRDNAKNTVYLQMNSLKPEDTAVYYCAKAVSLFRGPFSSFDYWGQGTQVTVSS,low polyreactivity
10,QVQLVESGGGLVQAGGSLRLSCAASGSIFLAYAMGWYRQAPGKEREFVAAISSRGGSTYYADSVKGRFTISRDNAKNTVYLQMNSLKPEDTAVYYCARYKYTRQTRVEYGYWGQGTQVTVSS,high polyreactivity
11,QVQLVESGGGLVQAGGSLRLSCAASGSIFLAYAMGWYRQAPGKERELVADISYSGGRTYYADSVMGRFTISRDNAKNTVYLQMNSLIPEDTAVYYCAADPWHDTDQHGNDYWGQGSQVTVSS,low polyreactivity
12,QVQLVESGGGLVQAGGSLRLSCAASGSIFLAYAMGWYRQAPGKERELVASTYYADSVKGRFTISRDNAKNTVYLQMNSLKPEDTAVYYCAADRIYSIYVSPYYSFGYWGQGTQVTVSS,low polyreactivity
13,QVQLVESGGGLVQAGGSLRLSCAASGSIFLAYDMGWYRQAPGKERELVAAISYTGGSTNYADSVKGRFTISRDNAKNTVYLQMNSLKPEDTAVYYCNTAGDLWIDYGYWGQGTQVTVSS,low polyreactivity
14,QVQLVESGGGLVQAGGSLRLSCAASGSIFLAYPMGWYRQAPGKEREFVAAISFSDGSTYYADSVKGRFTISRDNAKNTVYLQMNSLKPEDTAVYYCNKRASPDDYDYWGQGTQVTVSS,low polyreactivity
15,QVQLVESGGGLVQAGGSLRLSCAASGSIFLDNAMGWYRPAPGKERELVAAISRRGGTTYYADSVKGRFTISRDNAKNTVYLQLNSLIPEDTAVYYCAARYPGGKYYSYTYNYWGQGTQVTVSS,high polyreactivity
16,QVQLVESGGGLVQAGGSLRLSCAASGSIFLDYAMGWYRQAPGKERELVDGITISGGSTYYADSVKGRFTISRDNAKNTVYLQMNSLKPEYTAVYYCAKVAPRSSSSQEYYYWGQGTQVTVSS,low polyreactivity
17,QVQLVESGGGLVQAGGSLRLSCAASGSIFLGNTMGWYRQAPGKERELVAAITIGGSTHYADSVKGRFTISRDNAKNTVYLQMNSLKPDDTAVYYCAKEGWPFGIDFDYWGQGTQVTVSS,low polyreactivity
18,QVQLVESGGGLVQAGGSLRLSCAASGSIFLGYAMGWYRQAPGKERELVADIDWRDGSTYYADSVKGRFTISRDNAKTTVYLQMNSLKPEDTAVYYCAVYDNLQWDFGIYYEYDYWGQGTQVTVSS,high polyreactivity
19,QVQLVESGGGLVQAGGSLRLSCAASGSIFLHNAMGWYRQAPGKERELVAVITSRGGSTYYADSVKGRFTISRDNAKNTVYLQMNSLKPEDTAVYYCAADSRQSDYYYQPTKIDYWGQGTQVTVSS,low polyreactivity
20,QVQLVESGGGLVQAGGSLRLSCAASGSIFLHNAMGWYRQAPGKERVLVAVITSRGGSTYYADSVKGRFTISRDNAKNPVYLQMNSLKPEDTAVYYCAAPAYHKRTSRGDYWGQGTQVTVSS,low polyreactivity
21,QVQLVESGGGLVQAGGSLRLSCAASGSIFLINAMGWYRQAPGKERELVAAISRSGGRTYYADSVKGRFTISRDNAKNTVYLEMNSLKPEDTAVYYCAVPSIYYAVRAYDYWGQGTQVTVSS,high polyreactivity
22,QVQLVESGGGLVQAGGSLRLSCAASGSIFLINAMGWYRQAPGKETELVAAISRSGGRTYYADSVKGRFTISRDNAKNTVYLQMNSLKPEDTAVYYCAVPSIYYAGRAYDYWGQGTQVTVSS,high polyreactivity

row,Sequence,polyreactivity (PSR sort gate)
1,QVQLVESGGGLVQAGGSLRLSCAASGSIFLINAMGWYRQAPGTERELVAAISRRGGSTYYADSVKGRFTISRDNAKNTVYLQMNSLKPEDTAVYYCAATGHGRVYFGGGHWGQGTQVTVSS,high polyreactivity
2,QVQLVESGGGLVQAGGSLRLSCAASGSIFLIYAMGSYRQAPGKERELVATINRGDNTYYADSVKGRFTISRDNAKNTVYLQMNSLKPEDTAVYYCAADVPWGWWDSDFSDNYYWGQGTQVTVSS,low polyreactivity
3,QVQLVESGGGLVQAGGSLRLSCAASGSIFLIYAMGWYRQAPGKERELVAAISSGGSTYYADSVKGRFTISRDNAKNTVYLQMNSLKPEDTAVYYCATYSTSVAFHLYYWGQGTQVTVSS,low polyreactivity
4,QVQLVESGGGLVQAGGSLRLSCAASGSIFLIYAMGWYRQGPGKERELVAGINWSGSRTYYADSVKGRFTISRDNAKNTVYLQMNSLKPEDTAVYDCAARVRRPLYSAYDSWGQGTQVTVSS,low polyreactivity
5,QVQLVESGGGLVQAGGSLRLSCAASGSIFLKYAMCLYRQAPGKERELVAAMSFSGGGTYYADSVKGRFTISRDNAKNTVYLQMNSLKPEDTAVYYCAADKIVYVRSNWYWGFDYWGQGTQVTVSS,low polyreactivity
6,QVQLVESGGGLVQAGGSLRLSCAASGSIFLKYAMGWYRQAPGKERELVAAISSRGGSTYYADSVKGRFTISRDNAKNTVYLQMNSLKPEDTAVYYCAKVRQTYFGWYSTTRDYWGQGTQVTVSS,high polyreactivity
7,QVQLVESGGGLVQAGGSLRLSCAASGSIFLLYAMGWYRQAPGKERELVAAMSRGGSTYADSVKGRFTISRDNAKNTVYLQMNSLKPEVTAVYYCAASDQYRWYVHRWEDPFYYWGQGTQVTVSS,low polyreactivity
8,QVQLVESGGGLVQAGGSLRLSCAASGSIFLNYAMGWYRQAPGKERELVAAISYRVGRTYYADSVKGRFTISRDNAKNTVYLQMNSLKPVDTAVYYCAADSRSPGNDYWGQGTQVTVSS,high polyreactivity
9,QVQLVESGGGLVQAGGSLRLSCAASGSIFLPYAMGWNRQAPGKERELVAAITWSGGRTYYADSVKGRFTISRDNAKNTVYLQMNSLKPEDTAVYYCAADDSEGFDYWGQGTQVTVSS,high polyreactivity
10,QVQLVESGGGLVQAGGSLRLSCAASGSIFLRNAMGWYRQAPGKERELVAAITWDSGDTYYADSVQGRFTISRDNAKNTVYLQMNSLKPEDTAVYYCNTLGLSSDWGQGTQVTVSS,low polyreactivity
11,QVQLVESGGGLVQAGGSLRLSCAASGSIFLRYAMGWSRQARGKERELVAAITSSGRTNYADPVKGRFTISRDNAKNTVYLQMNSLKPEDTAVYYCAAVSYRQGVYRRNRYYYWGQGTQVTVSS,high polyreactivity
12,QVQLVESGGGLVQAGGSLRLSCAASGSIFLSNAMGWYRQSPGKERELVAAISSSGGSTYYADSVKGRFTISRDNAKNTVYLQMNSLKPEDTAVYYCAATGYGFRGRFDYWGQGTQVTVSS,low polyreactivity
13,QVQLVESGGGLVQAGGSLRLSCAASGSIFLSYAMGSYREAPGKERELVATITAGGGSTNYADSVKGRFTISRDNAKNTVYLQMNSLKPEDTAVYYCAAKRLSWHGYGYWGQGTQVTVSS,low polyreactivity
14,QVQLVESGGGLVQAGGSLRLSCAASGSIFLSYDMGWYRQAPGKERELVAAITQSGGSTYYADSVKGRFTISRDNAKNTVYLQINSLIPEDTAVYYCAADYGYLPQETYPTYGYYYWGQGTQVTVSS,low polyreactivity
15,QVQLVESGGGLVQAGGSLRLSCAASGSIFLTNAMGRYRQAPGKERELVAAIRSGGSTSYADSVKGRLTISRDNAKNTVYLQMNSLKPEDTAVYDCNAESDSRNYKVHPSGIYEYWGQGTQVTVSS,low polyreactivity
16,QVQLVESGGGLVQAGGSLRLSCAASGSIFLTYDMGWYRQAPGKERELVAAITGSGDSTYYADSVKGRFTISRDNAKNTVYLQMNSLKPEDTAVYYCNADGPSTPWVDYGYWGQGTQVTVSS,low polyreactivity
17,QVQLVESGGGLVQAGGSLRLSCAASGSIFLVNAMGWYRQAPGKERELVASITWRGGRTYYADSVKGRFTISRDNAKNTVYLEMNSLKPEDTAVYYCAARNYRTGERLRYDYWGQGTQVTVSS,low polyreactivity
18,QVQLVESGGGLVQAGGSLRLSCAASGSIFLVNAMGWYRQAPGKVRELVAAITYGGDSTYYADSVKGRFTISRDHAQNTVYLQMNSLKPEDTAVYYCAADAWVGWHDEYDYWGQGTQVTVSA,low polyreactivity
19,QVQLVESGGGLVQAGGSLRLSCAASGSIFLVNARGWYRQAPAKERELVASITWRGGRTYYADSVKGRFTISRDNAKNTDYLQMNSLKPEDTAVYYCAARNYRTGERLRYDYWGQGTQVTVSS,low polyreactivity
20,QVQLVESGGGLVQAGGSLRLSCAASGSIFLVYAMGWYRQAPGKERELVAASDWSDTDTYYADSVKGRFTISRDNAKNTFYLQMNSLKPEDTAVYYCAADHVGVDFEYWGQGTQVTVSS,low polyreactivity
21,QVQLVESGGGLVQAGGSLRLSCAASGSIFLVYGMGWYRPAPGKERELVAAISRTGGRTYYADSVKGRFTISRDNSKNTVYLQMNSLKPEDTAVYYCAAAAQRPEGYYWGQGTQVTVSS,high polyreactivity
